Here are results for 2 molecules from US20110117113A1, “IMMUNOGLOBULIN SINGLE VARIABLE DOMAIN DIRECTED AGAINST HUMAN CXCR4 AND OTHER CELL ASSOCIATED PROTEINS AND METHODS TO GENERATE THEM” (priority 2009, published 2011).

The target of one experiment is T1, CXCR4 (N119A) (Homo sapiens, UniProt P61073, N119A).
T1 construct: expressed in transfected cells; host or cells: HEK293T, transient; membranes in A4, whole cells in A5
Kind of experiment: Basal inositol phosphate accumulation in HEK293T cells transiently expressing CXCR4 (N119A). The format is cell-based. The note with it: ligand-induced alteration of basal inositol phosphate accumulation. From the text:
The functional profile of monovalent Nanobodies 238D2 and 238D4 as well as their bivalent fusion products L3 and L8 on CXCR4 (N119A) were investigated by measurement of the ligand-induced alteration of the basal inositol phosphate accumulation. HEK293T cells transiently expressing CXCR4 (N119A) show a 3-8 times higher basal rate of inositol phosphate accumulation compared to wild type CXCR4 or mock (which are virtually at the same level). […] The nanobody-induced reduction of basal inositol phosphate accumulation was antagonized by the selective neutral CXCR4 antagonist plerixafor confirming that the observed […] effects are mediated via CXCR4 (N119A).

In experiment [1] the target is T2, CXCR4 mutation library (Human CXCR4-short) (Homo sapiens, UniProt P61073, D187V).
T2 construct: expressed in transfected cells; host or cells: HEK-293T, transient, 384-well
Kind of experiment: Shotgun mutagenesis epitope mapping, immunofluorescence on CXCR4 mutation library in HEK-293T. It counts as binding. The note with it: residue D187; mutation D187V; normalized to wild type; 3 experiments (+/−range). The text has this:
(§1) Method: See e.g. Willis, et al. 2008. Virus-like particles as quantitative probes of membrane protein interactions. Biochemistry 47:6988-6990. In short, the method comprises the following steps:
(§2) Create comprehensive mutation library • Start with a cDNA in eukaryotic expression plasmid • Create library where every amino acid is individually mutated
(§3) Express each clone within living cells in 384-well microplates
(§4) Detect structure and/or function of proteins
(§5) • Parental plasmid: Human CXCR4-short (SEQ ID NO: 6, 352 amino acids) • Epitope tags: N-terminal Flag (to detect surface expression), C-terminal V5 (to detect full-length translation) • Cell types used for immunofluorescence assays: HEK-293T
(§6) The immunofluorescence assay conditions (to detect binding) were optimized for the nanbodies to be tested. In short, 384-well immunofluorescence (IF) assay using HEK-293T cells transiently was transfected with different concentrations of CXCR4 DNA. The plate was first incubated with different concentrations of either Nanobody 238D2 or 238D4, then with 9E10, and finally with Cy3. The commercially-available anti-CXCR4 MAb 12G5 was used as an IF control.
(§7) Mapping Nanobody Binding to CXCR4 Mutation Library: The entire library was screened in triplicate with each Nanobody. The data was background-subtracted and normalized to wild type reactivity and averaged across the repeats. Nanobody binding was plotted as a function of average surface expression, and measured by immunoreactivity of an N-terminal Flag epitope tag. Thresholds of 60% Flag and 30% Nanobody were used to identify critical clones. Using standard IF conditions, we identified 1 critical residue (2 critical clones). Using increased stringency assay conditions (high salt), we identified 5 additional residues (Tables C-3 and C-4).

Experiment [2] addresses T3, CXCR4 mutation library (Human CXCR4-short) (Homo sapiens, UniProt P61073, E179V/G258E).
T3 construct: expressed in transfected cells; host or cells: HEK-293T, transient, 384-well
The experiment is described as above. It counts as binding. The note with it: residue E179; mutations E179V, G258E; normalized to wild type; 3 experiments (+/−range).
Excerpt: as §1, §2, §3, §4, §5, §6, §7

The target of experiment [3] is T4, CXCR4 mutation library (Human CXCR4-short) (Homo sapiens, UniProt P61073, E277G).
T4 construct: expressed in transfected cells; host or cells: HEK-293T, transient, 384-well
Described as above. It counts as binding. The note with it: residue E277; mutation E277G; normalized to wild type; 3 experiments (+/−range); 238D2 critical residues under high stringency.
Excerpt: as §1, §2, §3, §4, §5, §6, §7

The target in experiment [4] is T5, CXCR4 mutation library (Human CXCR4-short) (Homo sapiens, UniProt P61073, F189S/K308R).
T5 construct: expressed in transfected cells; host or cells: HEK-293T, transient, 384-well
Described as above. It counts as binding. The note with it: residue F189; mutations F189S, K308R; normalized to wild type; 3 experiments (+/−range).
Excerpt: as §1, §2, §3, §4, §5, §6, §7

Experiment [5] concerns the target T6, CXCR4 mutation library (Human CXCR4-short) (Homo sapiens, UniProt P61073, P191T).
T6 construct: expressed in transfected cells; host or cells: HEK-293T, transient, 384-well
Described as above. The note with it: residue P191; mutation P191T; normalized to wild type; 3 experiments (+/−range); 238D2 critical residues under high stringency. The format is binding.
Excerpt: as §1, §2, §3, §4, §5, §6, §7

The target in experiment [6] is T7, CXCR4 mutation library (Human CXCR4-short) (Homo sapiens, UniProt P61073, S178C).
T7 construct: expressed in transfected cells; host or cells: HEK-293T, transient, 384-well
Described as above. The format is binding. The note with it: residue S178; mutation S178C; normalized to wild type; 3 experiments (+/−range).
Excerpt: as §1, §2, §3, §4, §5, §6, §7

Experiment [7] has as its target T8, CXCR4 mutation library (Human CXCR4-short) (Homo sapiens, UniProt P61073, V196E).
T8 construct: expressed in transfected cells; host or cells: HEK-293T, transient, 384-well
The description is as above. The format is binding. The note with it: residue V196; mutation V196E; normalized to wild type; 3 experiments (+/−range); 238D2 critical residues under high stringency.
Excerpt: as §1, §2, §3, §4, §5, §6, §7

The next experiment deals with T9, CXCR4 mutant 3 (D187V) (Homo sapiens, UniProt P61073, D187V).
T9 construct: expressed in transfected cells; host or cells: Hek293T, transient, pcDNA3.1
Description: Footprint assay, flow cytometry binding to CXCR4 D187V on Hek293T cells. The note with it: Myc-tag detection, 10 nM and 100 nM Nanobody, average n = 3, relative to hCXCR4. The text has this: Based on the data from example 1.8, we introduced 3 single point-mutations in ECL2 of CXCR4 that allowed to discriminate between 238D2 and 238D4-like epitopes: V196E (specifically disturbing D2 binding)-SEQ ID NO: 20, D187V (specifically disturbing D4 binding)-SEQ ID NO: 21, F189V (disturbing binding of both D2 and D4)-SEQ ID NO: 19. […] For the epitope mapping, transient transfections of the three CXCR4 mutants and wildtype human CXCR4 in the pcDNA3.1 vector were done in Hek293T cells, after which Nanobody binding of different families was assessed by flow cytometry using detection of the Myc-tag, followed by secondary anti-mouse PE. Two concentrations of Nanobody were tested, 10 nM and 100 nM, and experiment was repeated with essentially the same results. Binding of the Nanobodies to HEK293T hCXCR4 cells was used for normalization using the following formulas:
Percentage of binding to the mutant receptors was calculated for each Nanobody concentration, and a position was considered as critical when less than 25% residual binding (average of n=3) was observed (Table C-5). […] Nanobodies could be grouped according to their different binding patterns, not only in “238D2-like” or “epitope A binders” and “238D4-like” or “epitope B binders” but also into other new groups.
A general note: A flow cytometer gives signals particle by particle.

In experiment [8] the target is T10, wildtype human CXCR4 (pcDNA3.1-CXCR4, expressed in HEK293T) (human, UniProt P61073 1-352).
T10 construct: whole, on cells; also called hCXCR4; HEK293T CXCR4
Kind of experiment: competition with [125I]-238D4, HEK293T-CXCR4 membranes.

The target of experiment [9] is all CXCR4 library clones containing a mutation at E179. Kind of experiment: immunofluorescence, average over all clones with a mutation at E179.

T5 sequence (P61073 whole entry F189S/K308R): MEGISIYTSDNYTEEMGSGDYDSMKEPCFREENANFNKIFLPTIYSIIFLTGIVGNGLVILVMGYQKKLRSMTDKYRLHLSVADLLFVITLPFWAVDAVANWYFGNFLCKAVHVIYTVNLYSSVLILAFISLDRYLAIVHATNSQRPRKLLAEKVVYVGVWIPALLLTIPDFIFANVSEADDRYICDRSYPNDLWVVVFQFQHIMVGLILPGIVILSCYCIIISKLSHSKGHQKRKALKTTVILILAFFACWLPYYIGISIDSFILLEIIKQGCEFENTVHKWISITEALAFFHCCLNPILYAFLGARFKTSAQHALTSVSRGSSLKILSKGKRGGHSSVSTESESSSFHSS
T10 sequence (P61073 whole entry): as the sequence (P61073 whole entry F189S/K308R) above, with S189F, R308K counted along it
T3 sequence (P61073 whole entry E179V/G258E): as the sequence (P61073 whole entry F189S/K308R) above, with E179V, S189F, G258E, R308K counted along it
T7 sequence (P61073 whole entry S178C): as the sequence (P61073 whole entry F189S/K308R) above, with S178C, S189F, R308K counted along it
T2 sequence (P61073 whole entry D187V): as the sequence (P61073 whole entry F189S/K308R) above, with D187V, S189F, R308K counted along it
T9 sequence (P61073 whole entry D187V): as the sequence (P61073 whole entry F189S/K308R) above, with D187V, S189F, R308K counted along it
T8 sequence (P61073 whole entry V196E): as the sequence (P61073 whole entry F189S/K308R) above, with S189F, V196E, R308K counted along it
T1 sequence (P61073 whole entry N119A): as the sequence (P61073 whole entry F189S/K308R) above, with N119A, S189F, R308K counted along it
T6 sequence (P61073 whole entry P191T): as the sequence (P61073 whole entry F189S/K308R) above, with S189F, P191T, R308K counted along it
T4 sequence (P61073 whole entry E277G): as the sequence (P61073 whole entry F189S/K308R) above, with S189F, E277G, R308K counted along it

B1: 238D2: monovalent anti CXCR4 Nanobody, SEQ ID NO: 2 (protein)
VHH: EVQLVESGGGLVQTGGSLRLSCAASGFTFSSYAMSWVRQAPGKGLEWVSGIKSSGDSTRYAGSVKGRFTISRDNAKNMLYLQMYSLKPEDTAVYYCAKSRVSRTGLYTYDNRGQGTQVTVSS
modifications: Nanobody
As for B1, the “functional profile on CXCR4 (N119A) (in words)” value with CXCR4 (N119A) is listed as “Only antagonistic but no significant inverse agonistic activities”. Besides, the “% immunofluoresence, clone 2084” value in experiment [1] is reported as 93.6 (5.2) %. In addition, the “% immunofluoresence, clone 2834” value in experiment [2] is reported as 84.6 (7.8) %. For the same molecule, the “% immunofluoresence, clone 3622” value in [3] was 19.5 (11.9) %. Further, the “% immunofluoresence, clone 913” value in experiment [4] is −32.6 (18.7) %. Moreover, in experiment [5], the “% immunofluoresence, clone 2184” value is 15.8 (5.4) %. Besides, in [6], the “% immunofluoresence, clone 2396” value is 44.9 (13.4) %. Besides, the “% immunofluoresence, clone 2270” value in experiment [7] is listed as 20.6 (32.9) %. Besides, the “HEK293T D187V binding” value in the experiment with CXCR4 mutant 3 (D187V) is “+ (>75% binding to mutant rel. to hCXCR4)”.

B2: Nanobody 238D4 (VHH)
VHH: EVQLMESGGGLVQAGGSLRLSCAASGRTFNNYAMGWFRRAPGKEREFVAAITRSGVRSGVSAIYGDSVKDRFTISRDNAKNTLYLQMNSLKPEDTAVYTCAASAIGSGALRRFEYDYSGQGTQVTVSS
In experiment [8], B2 showed a pKi of 8.55 pKi. The average nanobody reactivity in experiment [9] was determined as 13.8%.
